The target of the experiment is envelope glycoprotein derived from T-tropic HIV-1 (gp120, gp41) (HIV-1 (T-tropic)). The experiment in a line: cell-based or functional assay.

In the case of “His-tagged actinohivin dimer fusion protein (from UniProt Q9KWN0 47-160)”, the concentration that inhibit 50% of syncytium formation (IC50) is 0.235. In the case of “His-tagged actinohivin monomer fusion protein (from UniProt Q9KWN0 47-160)” it was 0.58.

(Values after patent publication US20080254507A1.)
